We go through 20 molecules from patent US20200024348A1 (Alector, published 2020).

Positions count from the first letter of the chain named. Names may count otherwise.

The labels stand for the following.
B1: S-60-1 (antibody, IgG1, V domains shown)
VH: QVQLQESGPGLVKPSETLSLTCAVSGYSISSVRYWGWIRQPPGKGLEWIGSIYHSGSTYYNPSLKSRVTISVDTSKNQFSLKLSSVTAADTAVYYCARQGSIKQGYYGMDVWGQGTTVTVSS
VL: not shown
notes: Tested on the huIgG1 (WT) backbone
B2: S-60-4 (antibody, IgG1, V domains shown)
VH: B1 VH with V32G, R33Y, S51T
VL: DIVMTQSPLSLPVTPGESASISCRSSQGLLRSNGYNYLDWYLQKPGQSPQLLIYLGSNRASGVPDRFSGSGSGTDFTLKISRVEAEDVGVYYCMQQQETPLTFGGGTKVEIK
notes: as for B1
B3: S-60-2 (antibody, IgG1, V domains shown)
VH: B1 VH with S51A, H54P
VL: not shown
notes: as for B1
B4: S-60-7 (antibody, IgG1, V domains shown)
VH: B1 VH with V32G, R33Y, S51T
VL: not shown
notes: Tested on the huIgG1 (WT) backbone; also called S-60-5; S-60-6
B5: S-60-15 [N33 (wt)] huIgG1 LALAPS (antibody, V domains shown)
VH: B1 VH with V32G, R33Y, S51T
VL: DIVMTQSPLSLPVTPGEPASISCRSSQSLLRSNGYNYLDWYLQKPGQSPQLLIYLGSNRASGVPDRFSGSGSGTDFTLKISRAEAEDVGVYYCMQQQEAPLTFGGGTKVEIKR
notes: huIgG1 with L234A/L235A/P331S (LALAPS)
B6: S-60-15.6 [N33H] (antibody, human IgG1, kappa, L234A L235A, V domains shown)
VH: B1 VH with V32G, R33Y, S51T
VL: DIVMTQSPLSLPVTPGEPASISCRSSQSLLRSHGYNYLDWYLQKPGQSPQLLIYLGSNRASGVPDRFSGSGSGTDFTLKISRAEAEDVGVYYCMQQQEAPLTFGGGTKVEIKR
notes: huIgG1 LALAPS
B7: S-60-15.14 [N33V] (antibody, human IgG1, kappa, L234A L235A, V domains shown)
VH: B1 VH with V32G, R33Y, S51T
VL: B6 VL with H33V
notes: huIgG1 LALAPS
B8: S-60-15.3 [N33G] (antibody, human IgG1, kappa, L234A L235A, V domains shown)
VH: B1 VH with V32G, R33Y, S51T
VL: B6 VL with H33G
notes: huIgG1 LALAPS
B9: S-60-15.13 [N33I] (antibody, human IgG1, kappa, L234A L235A, V domains shown)
VH: B1 VH with V32G, R33Y, S51T
VL: B6 VL with H33I
notes: huIgG1 LALAPS
B10: S-60-15.10 [N33E] (antibody, human IgG1, kappa, L234A L235A, V domains shown)
VH: B1 VH with V32G, R33Y, S51T
VL: B6 VL with H33E
notes: huIgG1 LALAPS
B11: S-60-15.9 [N33Y] (antibody, human IgG1, kappa, L234A L235A, V domains shown)
VH: B1 VH with V32G, R33Y, S51T
VL: B6 VL with H33Y
notes: huIgG1 LALAPS
B12: S-60-15.17 [N33L] (antibody, human IgG1, kappa, L234A L235A, V domains shown)
VH: B1 VH with V32G, R33Y, S51T
VL: B6 VL with H33L
notes: huIgG1 LALAPS
B13: S-60-15.11 [N33W] (antibody, human IgG1, kappa, L234A L235A, V domains shown)
VH: B1 VH with V32G, R33Y, S51T
VL: B6 VL with H33W
notes: huIgG1 LALAPS
B14: S-60-15.8 [N33Q] (antibody, human IgG1, kappa, L234A L235A, V domains shown)
VH: B1 VH with V32G, R33Y, S51T
VL: B6 VL with H33Q
notes: huIgG1 LALAPS
B15: S-60-15.12 [N33F] (antibody, human IgG1, kappa, L234A L235A, V domains shown)
VH: B1 VH with V32G, R33Y, S51T
VL: B6 VL with H33F
notes: huIgG1 LALAPS
B16: S-60-15.4 [N33R] (antibody, human IgG1, kappa, L234A L235A, V domains shown)
VH: B1 VH with V32G, R33Y, S51T
VL: B6 VL with H33R
notes: huIgG1 LALAPS
B17: S-60-15.7 [N33K] (antibody, human IgG1, kappa, L234A L235A, V domains shown)
VH: B1 VH with V32G, R33Y, S51T
VL: B6 VL with H33K
notes: huIgG1 LALAPS
B18: S-60-15.16 [N33M] (antibody, human IgG1, kappa, L234A L235A, V domains shown)
VH: B1 VH with V32G, R33Y, S51T
VL: B6 VL with H33M
notes: huIgG1 LALAPS
B19: S-60-15.2 [N33S] (antibody, human IgG1, kappa, L234A L235A, V domains shown)
VH: B1 VH with V32G, R33Y, S51T
VL: B6 VL with H33S
notes: huIgG1 LALAPS
B20: S-60-15.15 [N33A] (antibody, human IgG1, kappa, L234A L235A, V domains shown)
VH: B1 VH with V32G, R33Y, S51T
VL: B6 VL with H33A
notes: huIgG1 LALAPS

For the first test, the target named is T1, human Sortilin (SORT1), full-length untagged, expressed on cells (human, UniProt Q99523 78-831).
T1 construct: U251 cells expressing SORT1 endogenously (down-regulation and PGRN secretion assays); also called human SORT1
T1 sequence: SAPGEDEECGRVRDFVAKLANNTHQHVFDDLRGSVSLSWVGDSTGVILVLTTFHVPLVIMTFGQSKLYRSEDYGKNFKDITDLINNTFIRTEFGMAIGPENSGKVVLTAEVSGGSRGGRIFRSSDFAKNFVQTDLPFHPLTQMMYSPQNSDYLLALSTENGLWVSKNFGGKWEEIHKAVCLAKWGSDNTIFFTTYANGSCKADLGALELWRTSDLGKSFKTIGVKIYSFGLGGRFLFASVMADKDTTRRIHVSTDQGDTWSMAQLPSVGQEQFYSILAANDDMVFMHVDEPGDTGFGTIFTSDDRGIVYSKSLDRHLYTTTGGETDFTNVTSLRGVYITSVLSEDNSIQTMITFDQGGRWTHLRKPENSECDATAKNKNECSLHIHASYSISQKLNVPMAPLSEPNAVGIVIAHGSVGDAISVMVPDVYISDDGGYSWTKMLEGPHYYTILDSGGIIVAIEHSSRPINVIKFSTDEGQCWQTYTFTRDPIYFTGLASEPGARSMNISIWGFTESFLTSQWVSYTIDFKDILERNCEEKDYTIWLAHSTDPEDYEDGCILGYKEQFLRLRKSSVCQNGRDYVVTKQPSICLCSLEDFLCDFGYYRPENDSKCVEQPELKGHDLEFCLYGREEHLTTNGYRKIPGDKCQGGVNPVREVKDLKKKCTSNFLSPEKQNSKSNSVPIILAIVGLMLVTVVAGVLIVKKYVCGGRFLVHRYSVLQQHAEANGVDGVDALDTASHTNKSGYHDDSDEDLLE
Briefly: FACS on HEK293T cells expressing human SORT1, huIgG1. The procedure:
For the binding assay, stable HEK293T cells expressing human SORT1 were harvested by trypsinization, washed in PBS, counted and plated on 96-well u-bottom plates at 1×10⁵ cells/well. The plates were spun at 1,400 rpm for 3 minutes and primary anti-SORT1 or control antibodies were added in FACS buffer (PBS+2 FBS) and incubated on ice for one hour. Cells were subsequently centrifuged as before and washed thrice with FACS buffer. Cells were then incubated with anti-human APC conjugated secondary antibody (BD Biosciences) in FACS buffer for 30 minutes on ice. Cells were again washed three times with FACS buffer and analyzed on a BD FACS Canto or an Intellicyt Flow Cytometer. Binding was measured as median fluorescent intensity (MFI) in the […] channel of the GFP positive cell population.
All antibodies were tested on the huIgG1 backbone.
In the case of B1, the dissociation constant (Kd) came to 7.22 nM.
Same read-out and setting: then B2, with 0.634 nM; and B3, with 11 nM.
Still for that read-out and setting: to B4 belongs 0.787 nM.

For the next test, the target named is T1, human Sortilin (SORT1), full-length …. Put plainly: cell-based or functional assay.
Take B1: the “DR EC50 (M): down-regulation of cell surface SORT1, U251 cells, FACS” value amounted to 2.73e-10 M and the “DR at 0.6 nM antibody (IgG): percent SORT1 downregulation, U251 cells” value is 50.4%.
Taken in the same sequence, the figures for B2 were 4.18e-10 M and 39.6%.
The matching figures for B3: 4.2e-10 M and 40.3%.
The matching figures for B4: 4.47e-10 M and 32.6%.

Another test deals with T2, histidine-tagged human SORT1 (R&D Systems) (human, UniProt Q99523 78-755).
T2 construct: Bought recombinant protein; also called His-tagged human SORT1; not shown: histidine tag
T2 sequence: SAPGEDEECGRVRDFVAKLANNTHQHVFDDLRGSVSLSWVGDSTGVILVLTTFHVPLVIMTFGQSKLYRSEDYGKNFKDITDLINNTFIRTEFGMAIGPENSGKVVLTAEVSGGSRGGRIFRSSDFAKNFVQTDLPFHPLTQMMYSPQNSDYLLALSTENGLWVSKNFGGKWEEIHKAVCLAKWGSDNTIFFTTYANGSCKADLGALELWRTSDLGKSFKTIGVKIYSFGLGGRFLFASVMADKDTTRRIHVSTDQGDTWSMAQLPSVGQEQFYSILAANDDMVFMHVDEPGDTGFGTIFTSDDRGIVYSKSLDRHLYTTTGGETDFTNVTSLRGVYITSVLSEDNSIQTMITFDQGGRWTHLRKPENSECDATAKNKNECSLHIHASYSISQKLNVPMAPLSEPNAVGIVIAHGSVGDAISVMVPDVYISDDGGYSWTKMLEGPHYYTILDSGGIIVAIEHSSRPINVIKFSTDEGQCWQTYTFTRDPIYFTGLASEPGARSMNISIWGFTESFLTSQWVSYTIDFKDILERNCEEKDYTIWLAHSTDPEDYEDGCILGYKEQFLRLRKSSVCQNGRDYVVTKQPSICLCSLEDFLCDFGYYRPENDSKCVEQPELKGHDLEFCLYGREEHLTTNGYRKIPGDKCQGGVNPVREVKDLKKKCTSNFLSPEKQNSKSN
Put plainly: BLI (Octet RED96), antibody captured on anti-human IgG Fc sensor, 20 nM His-tagged human SORT1, 1:1 fit. The procedure: The G1m3 or G1m(f) allotype with L234A/L235A/P331S (“LALAPS” motif) mutations was used as a background (Jefferis R and Lefranc M-P, Mabs, 2009 July-August; 1(4): 332-338). […] Bio-layer interferometry (BLI) data was collected at a rate of 5 Hz at 25° C. on a Pall ForteBio Octet RED96 instrument. Data analysis was performed using ForteBio Data Analysis Software, version 9.0. Standard kinetic buffer (PBS, 0.1 BSA, 0.02 Tween-20, pH 7.2) was used for the assay and for preparing reagents. For all assays, sensor tips were equilibrated in buffer prior to analysis.
Twenty nM histidine-tagged human SORT1 (R&D Systems, Minneapolis, Minn.) was then bound to the captured anti-SORT1 surface (200 s association time, 1200 s dissociation time). […] Full, local fitting using a 1:1 interaction model was applied to extract association and dissociation rate constants (kₐ and kd, respectively) for each N33 mutant. Affinity constants (KD) were calculated from the ratio […]. Different amino acid substitutions were made at N33 and tested for binding to SORT1 in an off-rate screen (under non-stress conditions) as shown in Table 9.
In general terms: Biolayer interferometry detects binding as a change in optical thickness at a sensor tip.
The molecule B5 returned a Kd of 0.27 nM. In other words, the sub-nanomolar range.
B6 had a Kd of 0.823 nM, a dissociation rate constant (koff) of 0.00046 s⁻¹ and a kon of 548000 M⁻¹ s⁻¹.
B7 showed a dissociation constant (Kd) of 0.69 nM, a koff of 0.000306 s⁻¹ and a kon of 445000 M⁻¹ s⁻¹.
The matching figures for B8: 0.825 nM, 0.000411 s⁻¹ and 498000 M⁻¹ s⁻¹.
The matching figures for B9: 0.46 nM, 0.000228 s⁻¹ and 491000 M⁻¹ s⁻¹.
B10 yielded a dissociation constant (Kd) of 2.01 nM, a koff of about 0.00136 s⁻¹ and an on-rate (kon) of 676000 M⁻¹ s⁻¹.
Take B11: the Kd was determined as 1.28 nM, the dissociation rate constant (koff) turned out to be 0.000675 s⁻¹ and the association rate constant (kon) was found to be 511000 M⁻¹ s⁻¹.
B12 gave a Kd of 1.03 nM, a koff of 0.000425 s⁻¹ and an on-rate (kon) of 412000 M⁻¹ s⁻¹.
The matching figures for B13: 0.96 nM, 0.000579 s⁻¹ and 601000 M⁻¹ s⁻¹.
Taken in the same sequence, the figures for B14 were 0.905 nM, 0.000653 s⁻¹ and 609000 M⁻¹ s⁻¹.
Taken in the same sequence, the figures for B15 were 2.91 nM, 0.000816 s⁻¹ and 280000 M⁻¹ s⁻¹.
Take B16: the equilibrium dissociation constant (Kd) was found to be 0.88 nM, the dissociation rate constant (koff) was found to be 0.00046 s⁻¹ and the kon was found to be 524000 M⁻¹ s⁻¹.
Taken in the same sequence, the figures for B17 were 0.965 nM, 0.000547 s⁻¹ and 563000 M⁻¹ s⁻¹.
Take B18: the Kd was found to be 0.85 nM, the koff came out at 0.000423 s⁻¹ and the kon turned out to be 495000 M⁻¹ s⁻¹.
Taken in the same sequence, the figures for B19 were 0.44 nM, 0.000247 s⁻¹ and 563000 M⁻¹ s⁻¹.
Taken in the same sequence, the figures for B20 were 0.625 nM, 0.000315 s⁻¹ and 493000 M⁻¹ s⁻¹.

One may read the Kd as the concentration at which binding is half-saturated. What is called koff is a measure of how fast the partners let go of each other. A lower koff goes with a long-lived complex. What is called kon is the second-order rate constant of association.
